These results are taken from patent US20090099029.

Residue numbers refer to the chain shown, from its start.

This data set has as its target T1, Bovine, dephosphorylated, Myelin Basic Protein (MBP), P02687.
T1 chain: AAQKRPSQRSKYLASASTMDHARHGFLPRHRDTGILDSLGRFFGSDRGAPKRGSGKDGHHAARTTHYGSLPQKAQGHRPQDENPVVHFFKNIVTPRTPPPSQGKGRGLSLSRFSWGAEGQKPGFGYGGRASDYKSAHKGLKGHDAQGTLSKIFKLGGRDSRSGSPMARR

B1: MAP3K5(ASK1) (protein)
chain: MSTEADEGITFSVPPFAPSGFCTIPEGGICRRGGAAAVGEGEEHQLPPPPPGSFWNVESAAAPGIGCPAATSSSSATRGRGSSVGGGSRRTTVAYVINEASQGQLVVAESEALQSLREACETVGATLETLHFGKLDFGETTVLDRFYNADIAVVEMSDAFRQPSLFYHLGVRESFSMANNIILYCDTNSDSLQSLKEIICQKNTMCTGNYTFVPYMITPHNKVYCCDSSFMKGLTELMQPNFELLLGPICLPLVDRFIQLLKVAQASSSQYFRESILNDIRKARNLYTGKELAAELARIRQRVDNIEVLTADIVINLLLSYRDIQDYDSIVKLVETLEKLPTFDLASHHHVKFHYAFALNRRNLPGDRAKALDIMIPMVQSEGQVASDMYCLVGRIYKDMFLDSNFTDTESRDHGASWFKKAFESEPTLQSGINYAVLLLAAGHQFESSFELRKVGVKLSSLLGKKGNLEKLQSYWEVGFFLGASVLANDHMRVIQASEKLFKLKTPAWYLKSIVETILIYKHFVKLTTEQPVAKQELVDFWMDFLVEATKTDVTVVRFPVLILEPTKIYQPSYLSINNEVEEKTISIWHVLPDDKKGIHEWNFSASSVRGVSISKFEERCCFLYVLHNSDDFQIYFCTELHCKKFFEMVNTITEEKGRSTEEGDCESDLLEYDYEYDENGDRVVLGKGTYGIVYAGRDLSNQVRIAIKEIPERDSRYSQPLHEEIALHKHLKHKNIVQYLGSFSENGFIKIFMEQVPGGSLSALLRSKWGPLKDNEQTIGFYTKQILEGLKYLHDNQIVHRDIKGDNVLINTYSGVLKISDFGTSKRLAGINPCTETFTGTLQYMAPEIIDKGPRGYGKAADIWSLGCTIIEMATGKPPFYELGEPQAAMFKVGMFKVHPEIPESMSAEAKAFILKCFEPDPDKRACANDLLVDEFLKVSSKKKKTQPKLSALSAGSNEYLRSISLPVPVLVEDTSSSSEYGSVSPDTELKVDPFSFKTRAKSCGERDVKGIRTLFLGIPDENFEDHSAPPSPEEKDSGFFMLRKDSERRATLHRILTEDQDKIVRNLMESLAQGAEEPKLKWEHITTLIASLREFVRSTDRKIIATTLSKLKLELDFDSHGISQVQVVLFGFQDAVNKVLRNHNIKPHWMFALDSIIRKAVQTAITILVPELRPHFSLASESDTADQEDLDVEDDHEEQPSNQTVRRPQAVIEDAVATSGVSTLSSTVSHDSQSAHRSLNVQLGRMKIETNRLLEELVRKEKELQALLHRAIEEKDQEIKHLKLKSQPIEIPELPVFHLNSSGTNTEDSELTDWLRVNGADEDTISRFLAEDYTLLDVLYYVTRDDLKCLRLRGGMLCTLWKAIIDFRNKQT
Turning to B1, the “MBP Kinase Activity” value is on record as “Weak”.

B2: MAP2K6(MKK6) (protein)
chain: MSQSKGKKRNPGLKIPKEAFEQPQTSSTPPRDLDSKACISIGNQNFEVKADDLEPIMELGRGAYGVVEKMRHVPSGQIMAVKRIRATVNSQEQKRLLMDLDISMRTVDCPFTVTFYGALFREGDVWICMELMDTSLDKFYKQVIDKGQTIPEDILGKIAVSIVKALEHLHSKLSVIHRDVKPSNVLINALGQVKMCDFGISGYLVDSVAKTIDAGCKPYMAPERINPELNQKGYSVKSDIWSLGITMIELAILRFPYDSWGTPFQQLKQVVEEPSPQLPADKFSAEFVDFTSQCLKKNSKERPTYPELMQHPFFTLHESKGTDVASFVKLILGD
With B2, the “MBP Kinase Activity” value is “Weak”.

B3: MAP2K6, mutant (protein)
chain: B2 chain with S207E, T211E
Take B3: the “MBP Kinase Activity” value is listed as “Negative”.

B4: MAP2K3(MEK3) (protein)
chain: MSKPPAPNPTPPRNLDSRTFITIGDRNFEVEADDLVTISELGRGAYGVVEKVRHAQSGTIMAVKRIRATVNSQEQKRLLMDLDINMRTVDCFYTVTFYGALFREGDVWICMELMDTSLDKFYRKVLDKNMTIPEDILGEIAVSIVRALEHLHSKLSVIHRDVKPSNVLINKEGHVKMCDFGISGYLVDSVAKTMDAGCKPYMAPERINPELNQKGYNVKSDVWSLGITMIEMAILRFPYESWGTPFQQLKQVVEEPSPQLPADRFSPEFVDFTAQCLRKNPAERMSYLELMEHPFFTLHKTKKTDIAAFVKEILGEDS
For B4, the “MBP Kinase Activity” value is recorded as “Negative”.

B5: MAP3K11(MLK3) (protein)
chain: MEPLKSLFLKSPLGSWNGSGSGGGGGGGGGRPEGSPKAAGYANPVWTALFDYEPSGQDELALRKGDRVEVLSRDAAISGDEGWWAGQVGGQVGIFPSNYVSRGGGPPPCEVASFQELRLEEVIGIGGFGKVYRGSWRGELVAVKAARQDPDEDISVTAESVRQEARLFAMLAHPNIIALKAVCLEEPNLCLVMEYAAGGPLSRALAGRRVPPHVLVNWAVQIARGMHYLHCEALVPVIHRDLKSNNILLLQPIESDDMEHKTLKITDFGLAREWHKTTQMSAAGTYAWMAPEVIKASTFSKGSDVWSFGVLLWELLTGEVPYRGIDCLAVAYGVAVNKLTLPIPSTCPEPFAQLMADCWAQDPHRRPDFASILQQLEALEAQVLREMPRDSFHSMQEGWKREIQGLFDELRAKEKELLSREEELTRAAREQRSQAEQLRRREHLLAQWELEVFERELTLLLQQVDRERPHVRRRRGTFKRSKLRARDGGERISMPLDFKHRITVQASPGLDRRRNVFEVGPGDSPTFPRFRAIQLEPAEPGQAWGRQSPRRLEDSSNGERRACWAWGPSSPKPGEAQNGRRRSRMDEATWYLDSDDSSPLGSPSTPPALNGNPPRPSLEPEEPKRPVPAERGSSSGTPKLIQRALLRGTALLASLGLGRDLQPPGGPGRERGESPTTPPTPTPAPCPTEPPPSPLICFSLKTPDSPPTPAPLLLDLGIPVGQRSAKSPRREEEPRGGTVSPPPGTSRSAPGTPGTPRSPPLGLISRPRPSPLRSRIDPWSFVSAGPRPSPLPSPQPAPRRAPWTLFPDSDPFWDSPPANPFQGGPQDCRAQTKDMGAQAPWVPEAGP
Consider B5, for which the “MBP Kinase Activity” value is “Negative”.

B6: MAPK12(p38gamma) (protein)
chain: MSSPPPARSGFYRQEVTKTAWEVRAVYRDLQPVGSGAYGAVCSAVDGRTGAKVAIKKLYRPFQSELFAKRAYRELRLLKHMRHENVIGLLDVFTPDETLDDFTDFYLVMPFMGTDLGKLMKHEKLGEDRIQFLVYQMLKGLRYIHAAGIIHRDLKPGNLAVNEDCELKILDFGLARQADSEMTGYVVTRWYRAPEVILNWMRYTQTVDIWSVGCIMAEMITGKTLFKGSDHLDQLKEIMKVTGTPPAEFVQRLQSDEAKNYMKGLPELEKKDFASILTNASPLAVNLLEKMLVLDAEQRVTAGEALAHPYFESLHDTEDEPQVQKYDDSFDDVDRTLDEWKRVTYKEVLSFKPPRQLGARVSKETPL
For B6, the “MBP Kinase Activity” value is reported as “Strong”.

B7: MAP3K9(MLK1) (protein)
chain: MEPSRALLGCLASAAAAAPPGEDGAGAGAEEEEEEEEEAAAAVGPGELGCDAPLPYWTAVFEYEAAGEDELTLRLGDVVEVLSKDSQVSGDEGWWTGQLNQRVGIFPSNYVTPRSAFSSRCQPGGEDPSCYPPIQLLEIDFAELTLEEIIGIGGFGKVYRAFWIGDEVAVKAARHDPDEDISQTIENVRQEAKLFAMLKHPNIIALRGVCLKEPNLCLVMEFARGGPLNRVLSGKRIPPDILVNWAVQIARGMNYLHDEAIVPIIHRDLKSSNILILQKVENGDLSNKILKITDFGLAREWHRTTKMSAAGTYAWMAPEVIRASMFSKGSDVWSYGVLLWELLTGEVPFRGIDGLAVAYGVAMNKLALPIPSTCPEPFAKLMEDCWNPDPHSRPSFTNILDQLTTIEESGFFEMPKDSFHCLQDNWKHEIQEMFDQLRAKEKELRTWEEELTRAALQQKNQEELLRRREQELAEREIDILERELNIIIHQLCQEKPRVKK
Turning to B7, the “MBP Kinase Activity” value is recorded as “Strong”.

B8: MAP4K4(HGK) (protein)
chain: MANDSPAKSLVDIDLSSLRDPAGIFELVEVVGNGTYGQVYKGRHVKTGQLAAIKVMDVTEDEEEEIKLEINMLKKYSHHRNIATYYGAFIKKSPPGHDDQLWLVMEFCGAGSITDLVKNTKGNTLKEDWIAYISREILRGLAHLHIHHVIHRDIKGQNVLLTENAEVKLVDFGVSAQLDRTVGRRNTFIGTPYWMAPEVIACDENPDATYDYRSDLWSCGITAIEMAEGAPPLCDMHPMRALFLIPRNPPPRLKSKKWSKKFFSFIEGCLVKNYMQRPSTEQLLKHPFIRDQPNERQVRIQLKDHIDRTRKKRGEKDETEYEYSGSEE
For the protein B8, the “MBP Kinase Activity” value is recorded as “Strong”.

B9: MAPK11(p38B) (protein)
chain: MSGPRAGFYRQELNKTVWEVPQRLQGLRPVGSGAYGSVCSAYDARLRQKVAVKKLSRPFQSLIHARRTYRELRLLKHLKHENVIGLLDVFTPATSIEDFSEVYLVTTLMGADLNNIVKCQALSDEHVQFLVYQLLRGLKYIHSAGIIHRDLKPSNVAVNEDCELRILDFGLARQADEEMTGYVATRWYRAPEIMLNWMHYNQTVDIWSVGCIMAELLQGKALFPGSDYIDQLKRIMEVVGTPSPEVLAKISSEHARTYIQSLPPMPQKDLSSIFRGANPLAIDLLGRMLVLDSDQRVSAAEALAHAYFSQYHDPEDEPEAEPYDESVEAKERTLEEWKELTYQEVLSFKPPEPPKPPGSLEIEQ
For the protein B9, the “MBP Kinase Activity” value is reported as “Strong”.

B10: MAP3K2(MEKK2) (protein)
chain: MDDQQALNSIMQDLAVLHKASRPALSLQETRKAKSSSPKKQNDVRVKFEHRGEKRILQFPRPVKLEDLRSKAKIAFGQSMDLHYTNNELVIPLTTQDDLDKAVELLDRSIHMKSLKILLVINGSTQATNLEPLPSLEDLDNTVFGAERKKRLSIIGPTSRDRSSPPPGYIPDELHQVARNGSFTSINSEGEFIPESMDQMLDPLSLSSPENSGSGSCPSLDSPLDGESYPKSRMPRAQSYPDNHQEFSDYDNPIFEKFGKGGTYPRRYHVSYHHQEYNDGRKTFPRARRTQGTSLRSPVSFSPTDHSLSTSSGSSIFTPEYDDSRIRRRGSDIDNPTLTVMDISPPSRSPRAPTNWRLGKLLGQGAFGRVYLCYDVDTGRELAVKQVQFDPDSPETSKEVNALECEIQLLKNLLHERIVQYYGCLRDPQEKTLSIFMEYMPGGSIKDQLKAYGALTENVTRKYTRQILEGVHYLHSNMIVHRDIKGANILRDSTGNVKLGDFGASKRLQTICLSGTGMKSVTGTPYWMSPEVISGEGYGRKADIWSVACTVVEMLTEKPPWAEFEAMAAIFKIATQPTNPKLPPHVSDYTRDFLKRIFVEAKLRPSADELLRHMFVHYH
Consider B10, for which the “MBP Kinase Activity” value is “Weak”.

B11: MAP2K2(MEK2) (protein)
chain: MLARRKPVLPALTINPTIAEGPSPTSEGASEANLVDLQKKLEELELDEQQKKRLEAFLTQKAKVGELKDDDFERISELGAGNGGVVTKVQHRPSGLIMARKLIHLEIKPAIRNQIIRELQVLHECNSPYIVGFYGAFYSDGEISICMEHMDGGSLDQVLKEAKRIPEEILGKVSIAVLRGLAYLREKHQIMHRDVKPSNILVNSRGEIKLCDFGVSGQLIDSMANSFVGTRSYMAPERLQGTHYSVQSDIWSMGLSLVELAVGRYPIPPPDAKELEAIFGRPVVDGEEGEPHSISPRPRPPGRPVSGHGMDSRPAMAIFELLDYIVNEPPPKLPNGVFTPDFQEFVNKCLIKNPAERADLKMLTNHTFIKRSEVEEVDFAGWLCKTLRLNQPGTPTRTAV
For the protein B11, the “MBP Kinase Activity” value is on record as “Negative”.
